{"source": "paper PMC6414276", "origin": "cited, not measured here", "key": {"CBP TAZ1 (Mus musculus) [1]": {"molecular_target": "CBP TAZ1 (Mus musculus) (UniProt P45481)", "sequence (P45481 340-439)": "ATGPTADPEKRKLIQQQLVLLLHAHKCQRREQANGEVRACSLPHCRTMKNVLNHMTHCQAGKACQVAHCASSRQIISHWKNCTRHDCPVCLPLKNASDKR"}, "CBP TAZ1 (Mus musculus) [2]": {"molecular_target": "CBP TAZ1 (Mus musculus) (UniProt P45481)", "remark": "listed apart in the source"}, "CBP TAZ1 (Mus musculus) [3]": {"molecular_target": "CBP TAZ1 (Mus musculus) (UniProt P45481)", "remark": "listed apart in the source"}}, "note": "Like-named read-outs stand apart in the source and are kept apart here."}
{"substance": "HIF-1α αC motif (from UniProt Q16665)", "values": [{"measurement": "Kd", "setting": "CBP TAZ1 (Mus musculus) [1]", "result": 200, "unit": "µM"}]}
{"substance": "HIF-1α 790-826 (from UniProt Q16665)", "values": [{"measurement": "Kd", "setting": "CBP TAZ1 (Mus musculus) [2]", "result": 0.047, "unit": "µM"}]}
{"substance": "HIF-1α LPQL-αB motif (from UniProt Q16665)", "values": [{"measurement": "Kd", "setting": "CBP TAZ1 (Mus musculus) [3]", "result": "> 1000", "unit": "µM"}]}
